Where a chain is given by its changes, count along the chain named. In names and notes the source's numbering stands. Positions of bridges follow the written chain, without caps; N, C: chain ends. No end group written: not given here.
T1: recombinant soluble human Seprase (rhuSeprase) (human, UniProt Q12884 29-760)
T1 construct: range 29-760; Secreted from CHO-S cells with a mouse Ig kappa secretion signal (not part of the protein in the assay); also called recombinant human Seprase; soluble fraction of human Seprase
T1 sequence: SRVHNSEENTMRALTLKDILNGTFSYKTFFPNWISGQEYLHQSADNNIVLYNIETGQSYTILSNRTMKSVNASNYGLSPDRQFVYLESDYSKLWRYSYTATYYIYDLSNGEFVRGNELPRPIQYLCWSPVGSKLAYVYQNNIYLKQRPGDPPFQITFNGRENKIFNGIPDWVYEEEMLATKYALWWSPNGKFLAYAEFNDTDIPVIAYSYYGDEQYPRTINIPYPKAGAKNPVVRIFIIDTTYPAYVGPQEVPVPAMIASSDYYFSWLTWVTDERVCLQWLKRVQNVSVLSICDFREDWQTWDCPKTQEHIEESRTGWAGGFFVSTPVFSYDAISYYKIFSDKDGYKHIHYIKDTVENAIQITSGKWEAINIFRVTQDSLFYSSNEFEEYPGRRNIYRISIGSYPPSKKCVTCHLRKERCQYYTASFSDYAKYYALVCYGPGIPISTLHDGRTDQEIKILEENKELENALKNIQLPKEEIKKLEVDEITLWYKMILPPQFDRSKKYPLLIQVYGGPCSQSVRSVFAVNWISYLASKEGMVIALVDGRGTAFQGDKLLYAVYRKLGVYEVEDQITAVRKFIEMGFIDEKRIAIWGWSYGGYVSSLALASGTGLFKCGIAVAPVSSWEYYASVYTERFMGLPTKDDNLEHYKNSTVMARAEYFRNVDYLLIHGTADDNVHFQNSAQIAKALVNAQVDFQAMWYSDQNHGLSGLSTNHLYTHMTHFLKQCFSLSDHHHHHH

B1: AlexaFluor680-(MC-FA-012)3 (designed binder, not shown: small tags and cut ends)
chain 1: GACPYSNWTPGRGPDCRRDSDCPGRCICRGNGYCG
chain 2: B1 chain 1
chain 3: B1 chain 1
modifications: each of chains 1-3: N-terminal aminooxy group oxime-ligated to the anchor; three disulfides (cystine knot) per chain; anchor carries AlexaFluor680 at its N-terminal amine
notes: Purchased from Pepscan; also called AF680-(MC-FA-012)3
B2: FA8-D03 (designed binder)
chain: GSGACPYTRWAVGRGPDCRRDSDCPGRCICRGNGYCG
B3: FA8-D06 (designed binder)
chain: B2 chain with T8S
B4: FA8-C09 (designed binder)
chain: B2 chain with R9N, A11R, V12P, D17A
B5: FA7-A05 (designed binder)
chain: B2 chain with T8S, A11M, V12P, D17S
B6: FA8-G12 (designed binder)
chain: B2 chain with R9N, A11H, V12P, D17A
B7: FA8-F04 (designed binder)
chain: B2 chain with T8S, R9N, D17S
B8: FA8-D05 (designed binder)
chain: B2 chain with A11Q, V12P, D17S
B9: MO-FA-012 (designed binder)
chain: GSGACPYSNWTPGRGPDCSSDSDCPGACICLENGFCG
B10: MC-FA-012 (designed binder)
chain: B1 chain 1
modifications: disulfide (positions not given here)
notes: it is derived from MC-FA-010 and K2A; also called MC-FA-012 (K2A); monomeric MC-FA-012 Microbody
B11: ET-FA-012 (designed binder)
chain: GSGACPYSNWTPGRGPDCSQDSDCLAGCVCGPNGFCG
B12: Trx-MC-FA-015 (designed binder)
chain: B1 chain 1 with A2K, S6A
modifications: disulfide 16-28, 22-34, 3-26; also: N-terminal Trx-His6-S-tag fusion carrier, not in chain
notes: the position follows from the order of the rows; also called alanine scan variant S6A of MC-FA-010, Trx fusion; not shown: thioredoxin-A, His6 tag, S-tag and linkers of the pET-32-LibEx fusion (N-terminal carrier)
B13: Trx-MC-FA-018 (designed binder)
chain: B1 chain 1 with A2K, T9A
modifications: disulfide 16-28, 22-34, 3-26; also: N-terminal Trx-His6-S-tag fusion carrier, not in chain
notes: the position follows from the order of the rows; also called alanine scan variant T9A of MC-FA-010, Trx fusion; not shown: thioredoxin-A, His6 tag, S-tag and linkers of the pET-32-LibEx fusion (N-terminal carrier)
B14: Trx-MC-FA-012 fusion protein (designed binder)
chain: B1 chain 1
modifications: disulfide 16-28, 22-34, 3-26; also: N-terminal Trx-His6-S-tag fusion carrier, not in chain
notes: also called MC-FA-012 (K2A) alanine scan variant; not shown: N-terminal carrier of the pET-32-LibEx fusion (thioredoxin-A, His tag, S-tag, thrombin site, vector linkers)
B15: Trx-MC-FA-0114 (designed binder)
chain: B1 chain 1 with A2K, D15A
modifications: disulfide 16-28, 22-34, 3-26; also: N-terminal Trx-His6-S-tag fusion carrier, not in chain
notes: the position follows from the order of the rows; also called alanine scan variant D15A of MC-FA-010, Trx fusion; not shown: Thioredoxin-A, His-tag (H6), S-tag and linker of the pET-32-LibEx fusion, N-terminal of the miniprotein
B16: Trx-MC-FA-0115 (designed binder)
chain: B1 chain 1 with A2K, R25A
modifications: disulfide 16-28, 22-34, 3-26; also: N-terminal Trx-His6-S-tag fusion carrier, not in chain
notes: also called alanine scan variant R25A of MC-FA-010, Trx fusion; not shown: Thioredoxin-A, His-tag (H6), S-tag and linker of the pET-32-LibEx fusion, N-terminal of the miniprotein
B17: Trx-MC-FA-016 (designed binder)
chain: B1 chain 1 with A2K, N7A
modifications: disulfide (positions not given here); also: N-terminal thioredoxin-A, His6, S-tag and linker carrier, letters not given here
notes: the position follows from the order of the rows; also called alanine scan variant N7A of MC-FA-010, Trx fusion; not shown: thioredoxin-A, His6 tag, S-tag and linkers of the pET-32-LibEx fusion (N-terminal carrier)
B18: Trx-MC-FA-011 (designed binder)
chain: B1 chain 1 with G1A, A2K
modifications: disulfide 16-28, 22-34, 3-26; also: N-terminal Trx-His6-S-tag fusion carrier, letters not given here
notes: the position follows from the order of the rows; also called alanine scan variant G1A of MC-FA-010, Trx fusion; not shown: Thioredoxin-A, His-tag (H6), S-tag and linker of the pET-32-LibEx fusion, N-terminal of the miniprotein
B19: Trx-MC-FA-013 (designed binder)
chain: B1 chain 1 with A2K, P4A
modifications: disulfide 16-28, 22-34, 3-26; also: N-terminal Trx-His6-S-tag fusion carrier, not in chain
notes: the position follows from the order of the rows; also called alanine scan variant P4A of MC-FA-010, Trx fusion; not shown: Thioredoxin-A, His-tag (H6), S-tag and linker of the pET-32-LibEx fusion, N-terminal of the miniprotein

These binders were tested against T1, recombinant soluble human Seprase … (assay: SPR (Biacore T-100)).
Protocol: (§1) RhuSeprase (20 μg/ml in PBS, 5% mannitol, 5% trehalose) was immobilized on an amino reactive Series S Sensor Chip CM5 (GE Healthcare). For binding analysis of monomeric Microbodies rhuSeprase was loaded to a maximum of 7500 RU, for oligomeric Microbodies to a maximum of 700 RU. Monomeric Microbodies were measured using a multi cycle kinetic method in a concentration range of 3.125 to 1000 nM based on expected dissociation constant. Association step was measured over a time period of 60-90 seconds, dissociation over 420 seconds. Trimeric Mircobodies were measured using a single cycle kinetics method in a concentration range of 0.3125 to 5 nM (association for 90 seconds, dissociation 420 seconds). Binding kinetics and steady state analysis were calculated using a 1:1 binding model (Biacore T-100 Evaluation Software, GE Healthcare).
(§2) The binding kinetics of monomeric and trimeric Seprase-binding Microbodies was determined using surface plasmon resonance spectroscopy on a Biacore T-100 system.

Binder	times slower offrate compared to MC-FA-012 [fold]
B1	~134

Each binder was assayed against T1, recombinant soluble human Seprase … (assay: SPR (Biacore T-100), rhuSeprase immobilized on CM5, multi cycle kinetics, 1:1 fit).
Protocol: as §1, §2

Binder	Kd [nM]	koff [s⁻¹]	kon [M⁻¹ s⁻¹]
B2	147	0.138	939000
B3	153	0.053	346000
B4	296	2.94	9.92e+06
B5	205	0.0503	246000
B6	487	0.317	651000
B7	321	0.2	624000
B8	193	0.812	4.21e+06
B9	1340	0.513	382000
B10	340	0.139	408000
B11	1400	0.853	608000

What follows are binders tested against T1, recombinant soluble human Seprase … (assay: SPR (Biacore T-100), rhuSeprase immobilized on CM5, single cycle kinetics, 1:1 fit).
Protocol: as §1, §2

Binder	Kd [nM]	kon [M⁻¹ s⁻¹]
B1	0.0615	1.68e+07

Each binder was assayed against T1, recombinant soluble human Seprase … (assay: SPR (Biacore T-100), rhuSeprase immobilized on CM5, steady state analysis, 1:1 fit).
Protocol: as §1, §2

Binder	Kd [nM]
B2	151
B3	113
B4	243
B5	102
B6	470
B7	332
B8	177
B9	1160
B10	246
B1	0.669
B11	4540

What follows are binders tested against T1, recombinant soluble human Seprase … (assay: direct ELISA on coated rhuSeprase; binding relative to the parental Trx-MC-FA-010).
Protocol: (§3) For protein based ELISA analysis 5 μg of the respective recombinant protein (rhuSeprase; streptavidin: Sigma; DPP-IV: R&D Systems, BSA: Eurobio) were immobilized per well of a MaxiSorp™ plate (Nunc) by overnight incubation in coating buffer at 4° C. After washing thrice with 300 μl PBS-T/well on a Hydrospeed plate washer (Tecan) the wells were blocked with 1×Casein solution (Sigma, diluted in PBS) for 2 h at RT. Subsequently, the wells were washed as indicated above. 100 μl of the respective Trx-miniprotein fusion diluted in PBS-T was then added and incubated for 1 h at 4° C. […] For competition ELISAs a fixed concentration of 3 nM Trx-miniprotein fusion was mixed with varying concentration (0.64-3167 nM) of solitary miniprotein before incubation. Binding of the Trx-fusion was detected after a PBS-T washing procedure using HRP coupled anti S-tag antibody as described above. Apparent Kd was calculated using Sigmaplot 10 and an one site saturation binding model for fitting of the data.

Binder	Relative Bindung im Vergleich zu Trx-MC-FA-010 [%]
B12	93.6
B13	29.9
B14	160
B15	59.2
B16	80.7
B17	13.4
B18	74.5
B19	33.7

What follows are binders tested against T1, recombinant soluble human Seprase … (assay: direct ELISA on coated rhuSeprase, Trx fusion detected with anti-S-tag-HRP; apparent KD from one site saturation fit; Error 0,54; R2 0,9981).
Protocol: as §3

Binder	Kd [nM]
B14	9.49

Each binder was assayed against T1, recombinant soluble human Seprase … (assay: direct ELISA on coated rhuSeprase, Trx fusion detected with anti-S-tag-HRP; apparent KD from one site saturation fit; Error 1,02; R2 0,9976).
Protocol: as §3

Binder	Kd [nM]
B12	16.2

These binders were tested against T1, recombinant soluble human Seprase … (assay: direct ELISA on coated rhuSeprase, Trx fusion detected with anti-S-tag-HRP; apparent KD from one site saturation fit; Error 1,17; R2 0,9977).
Protocol: as §3

Binder	Kd [nM]
B16	18.8

The binders below were run against T1, recombinant soluble human Seprase … (assay: direct ELISA on coated rhuSeprase, Trx fusion detected with anti-S-tag-HRP; apparent KD from one site saturation fit; Error 1,17; R2 0,9981).
Protocol: as §3

Binder	Kd [nM]
B18	20.3

The binders below were run against T1, recombinant soluble human Seprase … (assay: direct ELISA on coated rhuSeprase, Trx fusion detected with anti-S-tag-HRP; apparent KD from one site saturation fit; Error 1,76; R2 0,9973).
Protocol: as §3

Binder	Kd [nM]
B15	25.6

What follows are binders tested against T1, recombinant soluble human Seprase … (assay: direct ELISA on coated rhuSeprase, Trx fusion detected with anti-S-tag-HRP; apparent KD from one site saturation fit; Error 3,04; R2 0,9976).
Protocol: as §3

Binder	Kd [nM]
B19	44.9

These binders were tested against T1, recombinant soluble human Seprase … (assay: direct ELISA on coated rhuSeprase, Trx fusion detected with anti-S-tag-HRP; apparent KD from one site saturation fit; Error 3,63; R2 0,9974).
Protocol: as §3

Binder	Kd [nM]
B13	50.6

These binders were tested against T1, recombinant soluble human Seprase … (assay: direct ELISA on coated rhuSeprase, Trx fusion detected with anti-S-tag-HRP; apparent KD from one site saturation fit; Error 11,54; R2 0,9969).
Protocol: as §3

Binder	Kd [nM]
B17	113

Reference: US20180037632A1 (BIONTECH, published 2018)
